The results in this text go back to patent US20150118239A1 (GEORG AUGUST UNIVERSIT T G TTINGEN STIFTUNG FFENTLICHEN …, published 2015).

Assay [1] has as its target Aβ4-42 (human). The assay can be described thus: cell-based or functional assay.
Assay [2] concerns the target Aβ4-38 (human). As to the kind of experiment: cell-based or functional assay.
Assay [3] concerns the target AβpE3-42 (human, N-terminal pyroglutamate at Aβ position 3 (pE3)). As to the kind of experiment: cell-based or functional assay.
For assay [4], the target named is Aβ4-40 (human). The assay can be described thus: cell-based or functional assay.
Assay [5] concerns the target T1, AβpE3-42 low molecular weight (LMW) oligomers (human, N-terminal pyroglutamate at Aβ position 3 (pE3)).
T1 construct: otherwise only LMW oligomers
The assay can be described thus: native Western blot, sensitivity test. On the technique in general: Immunoblotting shows a protein as a band on a membrane.

The target of assay [6] is T2, Aβ4-42 low molecular weight (LMW) oligomers (human).
T2 construct: otherwise only LMW oligomers; also called Aβ4-42 oligomers
The assay can be described thus: native Western blot, sensitivity test.

In assay [7] the target is T3, Phospho-Tau aggregates (tufted astrocytes in PSP, Pick bodies in PiD) (human, UniProt P10636-8 2-441, limits assumed, phosphorylated, sites not stated).
T3 construct: Tissue aggregates in patients' brain sections; also called pTau
As to the kind of experiment: IHC, brain sections of non-AD neurodegenerative disorders.

In assay [8] the target is T4, Prion protein (PrP) deposits (human, UniProt P04156 23-230).
T4 construct: also called PrP immunopositive amyloid plaques, synaptic, plaque-like and perineuronal deposits
The assay is described as above.

For assay [9], the target named is T5, Phospho-TDP-43 neuronal cytoplasmic and neuritic deposits (human, UniProt Q13148 1-414, limits assumed, phosphorylated, sites not stated).
T5 construct: Tissue aggregates in patients' brain sections
Described as above.

In assay [10] the target is α-Synuclein aggregates (Lewy bodies, Lewy neurites, glial cytoplasmic inclusions) (human, UniProt P37840 1-140). Described as above.
Assay [11] deals with T6, Aβ4-10 (human).
T6 construct: Screening peptide of the hybridoma ELISA
T6 peptide: FRHDSGY
The assay can be described thus: hybridoma screening ELISA. On the technique in general: ELISA stands for enzyme-linked immunosorbent assay.

The target of assay [12] is T7, Aβ36-40 (human).
T7 construct: Counter-screening peptide of the hybridoma ELISA
T7 peptide: VGGVV
The assay can be described thus: hybridoma screening ELISA.

Assay [13] concerns the target T8, Aβ5-20 (human).
T8 construct: Pepscan 16-mer
T8 peptide: RHDSGYEVHHQKLVFF
As to the kind of experiment: pepscan ELISA.

In assay [14] the target is T9, Aβ3-18 (human).
T9 construct: Pepscan 16-mer
T9 peptide: EFRHDSGYEVHHQKLV
As to the kind of experiment: pepscan ELISA, coated 16-mer peptides, antibody 7 µg/ml.

In assay [15] the target is T10, Aβ2-17 (human).
T10 construct: Pepscan 16-mer
T10 peptide: AEFRHDSGYEVHHQKL
Described as above.

Assay [16] addresses T11, Aβ4-19 (human).
T11 construct: Pepscan 16-mer
T11 peptide: FRHDSGYEVHHQKLVF
Described as above.

The target of assay [17] is T12, Aβ4-38 (human).
T12 construct: Synthetic peptide
As to the kind of experiment: native Western blot, equal amounts of freshly dissolved peptides.

Assay [18] deals with T13, Aβ4-40 (human).
T13 construct: Synthetic peptide, the immunogen
Described as above.

B1: NT4X-167 (antibody, V domains shown)
VH: QVQLKQSGPGLVQPSQSLSITCTVSGFSLTSYGIHWVRQSPGKGLEWLGVMWSGGITDFYAAFISRLSISRDISKSQVFFKMNSLQADDTAIYYCARGSRYALDYWGQGTSVSVSS
VL: DIQMTQTTSSLSASLGDRVTISCRASQDISNYLNWYQQKPDGTVKLLIYYTSRLHSGVPSRFSGSGSGTDYSLTISNLEQEDIATYFCQQGNTLPPTFGGGTKLEIK
notes: also called NT4X-67
As for B1, the “viability of SH-SY5Y cells (MTS), aged 10 µM peptide with against without antibody” value in assay [1] was less than 0.01 p value; in [2], less than 0.01 p value; in assay [3], less than 0.05 p value; in [4], less than 0.01 p value. Also, the “peptide amount giving similar signal intensity” value in assay [5] and in [6] was 70 ng throughout. The binding result in assay [7] was “no binding”; in assay [8] it was “no binding”; in [9] it was “no binding”; in assay [10], “no binding”; in [11], “binds”; in assay [12], “no binding”.

B2: NT4X-83 (antibody, V domains shown)
VH: EVHLQQSGAELVKPGASVKLSCTASGFNIRDTYIHWVKQRPEQGLEWIGRVDPANGNTKYDPKFQGKATITADTSSDTAYLQLSSLTAEDTAVYFCARRIYYGYALFAYWGQGTLVTVSA
VL: DIVMTQSPSSLTVTAGEKVTMSCKSSQSLLNSGNQKNYLTWYQQKPGQPPKLLIYWASTRESGVPDRFTGSGSGTDFTLTISSVQAEDLAVYYCQNDYSYPLTFGAGTKLELK
notes: also called Aβ4-40 NT4X-83; DSM ACC3161
For B2, the binding result is reported as “no binding (tested: 7 µg/ml)” in assay [13]; “binds” in assay [14]; “binds” in assay [15]; “binds” in assay [16]; “no binding” in assay [7]; “no binding” in [8]. In addition, the binding result in [9] is reported as “no binding”; in assay [10] it was “no binding”; in assay [11] it was “binds”; in [12], “no binding”; in [17], “binds”; in assay [18], “binds”. Besides, the “peptide amount giving similar signal intensity” value in [5] and in [6] was 500 ng each time.
